Reference: the DeepSol protein solubility set

Experiment: soluble on expression in E. coli; label from the status in PepcDB or PDB records

| Sequence | soluble on expression in E. coli |
| --- | --- |
| MHHHHHHKSTKILILGAGPAGFSAAKAALGKCDDITMINSEKYLPYYRPRLNEIIAKNKSIDDILIKKNDWYEKNNIKVITSEFATSIDPNNKLVTLKSGEKIKYEKLIIASGSIANKIKVPHADEIFSLYSYDDALKIKDECKNKGKAFIIGGGILGIELAQAIIDSGTPASIGIILEYPLERQLDRDGGLFLKDKLDRLGIKIYTNSNFEEMGDLIRSSCVITAVGVKPNLDFIKDTEIASKRGILVNDHMETSIKDIYACGDVAEFYGKNPGLINIANKQGEVAGLNACGEDASYSEIIPSPILKVSGISIISCGDIENNKPSKVFRSTQEDKYIVCMLKENKIDAAAVIGDVSLGTKLKKAIDSSKSFDNISSLDAILNNL | soluble |
| MTGAVCPGSFDPVTLGHVDIFERAAAQFDEVVVAILVNPAKTGMFDLDERIAMVKESTTHLPNLRVQVGHGLVVDFVRSCGMTAIVKGLRTGTDFEYELQMAQMNKHIAGVDTFFVATAPRYSFVSSSLAKEVAMLGGDVSELLPEPVNRRLRDRLNTERT | not soluble |
| MNKEALVQVAEEVRRATGLPVGWRDVERTLGALRATRDLWEAVRLSRVPLRFLVPIWEGLARRGLLRVEEGLDLLAEVPAPRPGEAACPACEGRGLVGERLPGRAAERFLAWAKERPEAIQDFDQGYVTPESTLARVALAWNWGDLEGKEVLVLGDDDLTGLAAALTGLPKRVVVLDADPRIVRFLERAAKAEGLPLEAHVHDLREPLPEAWVHAFHTFFTDPVEGPLGLQAFVGRGLLALEGEGCAGYVGLTHVEASLAKWADFQRFLLENGAVITELRDGFHVYENWGYIEQMRAWPWLPVKRRPEKPWYTSALIRLELLRRADLENARVEGDLQDEEATTY | soluble |
| MRLLVSCVDSGSIKEVLCNIGTDTSVQSALQPFHVAPHLAEGLKAYVDRMWVISEDEAILARNSGVVELVKISKHLKENEALQVDPKGESKNEKSLSDDLPKFDISEFEITSSVSDLFDDAKLESLSSKSVKRTKLVDGFVTLCPIKKDSSNNTFVAATKSGLLHIIKKGEDKKLIKLASLGLKAPVEFLQLYDLEDTDTDKYIFAYGGEENLIKLVEIDSSFQSLKQIWEAKNVKNDRLDMRVPVWPMALRFLEPSPGKTEKGKLNYQFAAITRWSHLTKYSTQHGRKPFAQIDLLPNREPLSQMEVFDAKGENVVSSLGNFQSETFNELNVITTDYKKNVFKFDGNGRMLGKVGRDDITGSSTYIHVHDGKYLLQGGLDRYVRIFDIKTNKMLVKVYVGSRINFIVMLDDVEIEMPLSPSAKAAKGKQKRKVTELEEDADELWNKLEGKVAASKASKKSKI | soluble |
| MSLNNIDNIINFINKTPKSELHLHIEGSLEPELMFKLSKRNKIEIPFKSVEDIKSAYNFSNLDSFLKIYYEGSNVLITEEDFFDLTWEYILRCKKDNIVHTEIFFDPQSHTSRGIKFDIIINGIHKALAKANDEFGITSKIIMCFLRHLDEKLCFDVLKDAIQHKDKIIGVGLDSSEKGNPPKKFKRLFEEAIKEGFLTVAHAGEEGPPEYIWDSLNLLKVKRIDHGVQCLKDDDLVKNLKENNIPLTVCPLSNIKLCVFDKLENHNLKKMLEKGLRVMVNSDDPAYFGGYLNKNLIEISKALNLNLEQVKVLIQNSFKSSFLDKKSKSKWLSKVEGHHHHHH | soluble |
| MSLSDFDYIQKNTPPEFPEKFKTALLPENIKKNRYSDVLANDDTRVKLNNNGYINANYIFQGRMIASQAPTIETIPDFLQMIIEQQVPIVIMLTKCKEKTRIKATPYWGYKSEGGKKVFGNYTVNTIDTLYDDVEEDKFMEDIQIRYLQIIYEDGVYSFIQIHYMGWPDFGVPLNPKDALDIVYIQYIIGTTSKFSNRNLVCVHCSAGVGRTGVYCLLSRIVEMVTYEILEKSETYSKQRSTSSSSKVREVEDRIEEILLSHPVISYEDCEVILPELVLSIRNERSKMVQTKEQYDFICETVNCFYEDALDSINQYYEVIDALTEGHHHHHH | not soluble |
| SLIENSHVKKDDIWPSGGQMTVKDLTAKYTEGGNAILENISFSISPGQRVGLLGRTGSGKSTLLSAFLRLLNTEGEIQIDGVSWDSITLEQWRKAFGVIPQKVFIFSGTFRKNLDPNAAHSDQEIWKVADEVGLRSVIEQFPGKLDFVLVDGGCVLSHGHKQLMCLARSVLSKAKILLLDEPSAHLDPVTYQIIRRTLKQAFADCTVILCEARIEAMLECDQFLVIEENKVRQYDSIQKLLNERSLFRQAISPSDRVKLFPHRNSSKCKSKPQIERETLVTMENVTAFWEEGGTPVLKDINFKIERGQLLAVAGSTGAGKTSLLMMIMGELEPSEGKIKHSGRISFCSQNSWIMPGTIKENIIFGVSYDEYRYRSVIKACQLEEDISKFAEKDNIVLGEGGITLSGGQRARISLARAVYKDADLYLLDSPFGYLDVLTEKEIFESCVCKLMANKTRILVTSKMEHLKKADKILILHEGSSYFYGTFSELQNLRPDFSSKLMG | soluble |
| MGSDKIHHHHHHMKTVRIETFGCKVNQYESEYMAEQLEKAGYVVLPDGNAAYYIVNSCAVTKEVEKKVKRLIKSIRNRNKNAKIILTGCFAQLSPDEAKNLPVDMVLGIDEKKHIVDHINSLNGKQQVVVSEPGRPVYEKVKGSFEDRTRSYIKVEDGCDNTCTYCAIRLARGTRIRSKPLEIFKEEFAEMVMKGYKEIVITGVNLGKYGKDMGSSLAELLKVIEKVPGDYRVRLSSINVEDVNDEIVKAFKRNPRLCPHLHISVQSGSDDVLKRMGRKYKISDFMRVVDKLRSIDPDFSITTDIIVGFPGETDADFQRTLELVEKVEFSRVHIFRFSPRPGTPASRMEGGVPESKKKERLDVLKEKAKDVSIRYRKRIIGKERKVLAEWYVMKGVLSGYDEYYVKHEFVGNRVGEFHSVRVKSLSEEGVISCRADMVEGKVPARG | not soluble |
| MFRQLKKNLVATLIAAMTIGQVAPAFADSADTLPDMGTSAGSTLSIGQEMQMGDYYVRQLRGSAPLINDPLLTQYINSLGMRLVSHANSVKTPFHFFLINNDEINAFAFFGGNVVLHSALFRYSDNESQLASVMAHEISHVTQRHLARAMEDQQRSAPLTWVGALGSILLAMASPQAGMAALTGTLAGTRQGMISFTQQNEQEADRIGIQVLQRSGFDPQAMPTFLEKLLDQARYSSRPPEILLTHPLPESRLADARNRANQMRPMVVQSSEDFYLAKARTLGMYNSGRNQLTSDLLDEWAKGNVRQQRAAQYGRALQAMEANKYDEARKTLQPLLAAEPGNAWYLDLATDIDLGQNKANEAINRLKNARDLRTNPVLQLNLANAYLQGGQPQEAANILNRYTFNNKDDSNGWDLLAQAEAALNNRDQELAARAEGYALAGRLDQAISLLSSASSQVKLGSLQQARYDARIDQLRQLQERFKPYTKMLEHHHHHH | soluble |
| MGSDKIHHHHHHMNFVTTIGLEVHVELKTNSKIFSPSPVQFGSEPNANTNVIDWGYPGVLPTPNKGVVEAGIKAATALHAEIEHHTYFDRKNYFYPDNPKAYQITQHEKPIAHDGWIEIEVDGKKKKIGIEEMHIEEDAGKNTHENDYSYVDLNRQGTPLIEIVSKPDIASPEEAYAYCEALRQRIQFTGVSDVKMEEGSMRVDVNISIRPAGSDKYGVKTEMKNLNSFNYVRKSLEYEEQRQQQVLMAGGKIQQETRRFDETTGQTILMRVKEGSDDYRYFPEPDIPAVDIDDDWIASVKKTIPEMPGSRRERYINEFGLTAYDAGVLTQTKEMSDFFDATVAEGADPKLASNYLQGDVNAYLNEHKVDLLATDLTPTNLAGMIKMISDETISSKIAKKVFKAIMAGSEPVQWVNDKGLVQLSDPAKLQPIVDDVLDNNQQSIDDFKNGKDRAVGFLVGQIMKKTRGQANPKVVNQLLMTSLKAR | not soluble |
| MSLTGANDSNYDPFAGLSFRVGVAENKNTTFRNKMEDVHTYIANFAERVDWGYFAIFDGHAGKDTARWCGNNLHTLLEEEIDRNSDEGSPPPTPITGKDDLREDLYKCFVKADELIEKSGQGKSGCTAAVAVLRWESDNEEPVSHTKSQDGGKFDFKPTKNHKRLLYTSNVGDLRIVLCRAGQAYRLSYDHKATDTHEINRIEDNGGLVLKNRVNGVLAVTRSLGDTYMKLLVIGVPFTTATEITADDEFIIIACDGLWDVVSDKHACKLAAESFKQGYSPLQVAKKLCQFAIELSTTDNVTVMVVQLDNDVFSEGHHHHHH | soluble |
| MAHHHHHHMSDEAARQQRSAELADQVRTFFATYAGSAEERLDVVRGYEKCRGDFKKMVREYLLFDNGVEAEVQRLHRLVSTLIELGNLSPTPAWKSTSTPEALLRLEKAMHRERQEAENVLKDMAGSGTGAAGAADGDLSSLQVMIRQRQQSSYESMLNHLESKYVTKKSNARESSSAHVRPHRPLARTNVLPKSTGKPLITGKSGTCAEEASASGIRPGNVGRIPLSTAVIFCFLCYCGRYRSWLNACDLSPHLLTQPPKFPAWLRGQPITVL | soluble |
| FSPLSSQSSACCFAYIARPLPRAHIKEYFYTSGKCSNPAVVFVTRKNRQVCANPEKKWVREYINSLEMS | soluble |
| MAHHHHHHMSTSRPAAVLHAASDDEKEDDPMAVLWQHERHVLVLTRAGKPIFSQHGHEEQLSPLCALLQVLLCIHEDKGGGDEQSRGPSQPAPRSDGTASSAAVKDELHQVVYYRSKSASGQACHQGDVNAQVQALTLFFYVQGDLIYLMSVRSVAPSLPAGAVEMSNAEGECEPPPLASYCLAQLRHVHHCILLVLPTVNTLLTRSPGLDVMAMYTSADRAALRELIESYQTELTYAVGAVATLALSVEKRRVVERALLCCYRSCADAAVGPPAHQLFSFLYFKNYLVAAVGPPETYAADPKVSVSAPLALGPDTALCGCLHVDDALLLYRYARSLVSRQLGEAWVPVCLPRFNSTGYLWCYAVNFTRYARELRKQQGKTEWPKVWEEHTELDIMLLHVSASQDDFAALSRSTRRFAQILCAPAVEDNFYYRLEEELYYRTPAPLTELLPSSHTSVSTCSSRDLSGYTDGVPVVVWRGHSRQ | not soluble |
| MGHHHHHHSHKVENFEAAVHFYGKAIELNPANAVYFCNRAAAYSKLGNYAGAVQDCERAICIDPAYSKAYGRMGLALSSLNKHVEAVAYYKKALELDPDNETYKSNLKIAELKLREAPSPTGGVGSFDIAGLLNNPGFMSMASNLMNNPQIQQLMSGMISGGNNPLGTPGTSPSQNDLASLIQAGQQFAQQMQQQNPELIEQLRSQIRSRTP | not soluble |
| SRRRRSGTEPEKIEPGEGASRSRRDMLKDGGQQGLGTGARDPDKATRFRMEELRLTSTTFALTGDSAHNQAMVHWSGHNSSVILILTKLYDYNLGSITESSLWRSTDYGTTYEKLNDKVGLKTILSYLYVCPTNKRKIMLLTDPEIESSLLISSDEGATYQKYRLNFYIQSLLFHPKQEDWILAYSQDQKLYSSAEFGRRWQLIQESVVPNRFYWSVMGSSKEPDLVHLEARTVDGHSIYLTCRMQNCTEANRNKPFPGYIDPDSLIVQDDYVFVQLTSGGRPHYYVSYRRSPFAQMKLPKYALPKDMHVISTDENQVFAAVQEWNQNDTYNLYISDTRGVYFTLALENVQSSRGPEGNVMIDLYEVAGIKGMFLANKKIDNQVKTFITYNKGRDWRLLQAPDADLRGDPVHCLLPYCSLHLHLKVSENPYTSGIIASRDTAPSIIVASGNIGSELSDSDISMFVSSDAGNTWRQIFEEEHSILYLDQGGVLVAMKHTSLPIRHLWLSFDEGRSWSKYSFTSIPLFVDGVLGEPGEETLIMTVFGHFSHRSEWQLVKVDYKSIFDRRCAEEDYRPWQLHSQGEACIMGAKRIYKKRKSERKCMQGKYAGAMESEPCVCTEADFDCDYGYERHSNGQCLPAFWFNPSSLSKDCSLGQSYLNSTGYRKVVSNNCTDGVREQYTAKPQKCP | soluble |
